The values below come from US20260232827A1 (Zymeworks, published 2026).

Test [1] addresses T1, human sodium-dependent phosphate transporter 2B (NaPi2b) (human, UniProt O95436 1-690).
T1 construct: UniProt ID is given as 095436 [sic]; also called hNaPi2b; Hu NaPi2b
T1 sequence: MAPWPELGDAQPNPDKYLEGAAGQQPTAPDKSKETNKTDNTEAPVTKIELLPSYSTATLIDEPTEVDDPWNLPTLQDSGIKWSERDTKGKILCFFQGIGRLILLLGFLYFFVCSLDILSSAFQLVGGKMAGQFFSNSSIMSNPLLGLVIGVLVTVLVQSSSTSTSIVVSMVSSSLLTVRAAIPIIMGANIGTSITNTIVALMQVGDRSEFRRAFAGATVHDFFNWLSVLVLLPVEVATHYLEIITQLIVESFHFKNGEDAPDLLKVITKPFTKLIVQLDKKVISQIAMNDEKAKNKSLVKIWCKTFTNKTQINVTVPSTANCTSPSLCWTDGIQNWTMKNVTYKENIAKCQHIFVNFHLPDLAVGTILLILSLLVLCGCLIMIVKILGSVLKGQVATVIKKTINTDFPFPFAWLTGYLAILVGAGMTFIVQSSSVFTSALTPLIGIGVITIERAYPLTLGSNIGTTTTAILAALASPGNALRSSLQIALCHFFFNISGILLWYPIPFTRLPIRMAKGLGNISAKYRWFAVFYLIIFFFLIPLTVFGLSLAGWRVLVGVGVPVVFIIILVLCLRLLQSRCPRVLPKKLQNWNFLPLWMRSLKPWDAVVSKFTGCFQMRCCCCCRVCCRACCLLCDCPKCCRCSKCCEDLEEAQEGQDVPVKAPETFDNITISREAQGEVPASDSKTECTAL
In words: flow cytometry, IGROV-1 cells (endogenous NaPi2b). Also noted: unit not given here.

The target in test [2] is T1, human sodium-dependent phosphate …. In words: flow cytometry, IGROV-1 cells (endogenous NaPi2b); apparent Kd.
In test [3] the target is T2, human NaPi2b (sodium-dependent phosphate transporter 2B) (human, UniProt O95436 1-690).
T2 sequence: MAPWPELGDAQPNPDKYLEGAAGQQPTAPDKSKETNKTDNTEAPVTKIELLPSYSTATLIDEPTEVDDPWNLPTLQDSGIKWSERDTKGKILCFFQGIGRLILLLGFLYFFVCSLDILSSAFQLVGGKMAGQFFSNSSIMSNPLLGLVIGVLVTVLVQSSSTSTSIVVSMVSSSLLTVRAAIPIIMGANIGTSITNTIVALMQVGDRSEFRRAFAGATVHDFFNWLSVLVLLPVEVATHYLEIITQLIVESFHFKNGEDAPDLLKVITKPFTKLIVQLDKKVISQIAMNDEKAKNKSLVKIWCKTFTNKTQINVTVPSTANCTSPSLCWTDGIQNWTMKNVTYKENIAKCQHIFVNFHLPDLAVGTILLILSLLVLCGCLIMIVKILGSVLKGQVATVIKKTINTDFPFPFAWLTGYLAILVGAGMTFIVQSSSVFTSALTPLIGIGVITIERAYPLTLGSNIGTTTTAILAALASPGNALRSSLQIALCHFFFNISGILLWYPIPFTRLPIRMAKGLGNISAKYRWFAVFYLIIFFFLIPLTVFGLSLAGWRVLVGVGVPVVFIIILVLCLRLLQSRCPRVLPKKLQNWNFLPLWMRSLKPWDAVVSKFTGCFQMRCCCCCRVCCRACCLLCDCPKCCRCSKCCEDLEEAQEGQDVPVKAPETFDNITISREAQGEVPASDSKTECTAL
In words: cell-based or functional assay.

B1: v18993 (lifastuzumab)-DL2 (antibody, human IgG1, kappa)
heavy 1: GEVQLVESGGGLVQPGGSLRLSCAASGFSFSDFAMSWVRQAPGKGLEWVATIGRVAFHTYYPDSMKGRFTISRDNSKNTLYLQMNSLRAEDTAVYYCARHRGFDVGHFDFWGQGTLVTVSSASTKGPSVFPLAPSSKSTSGGTAALGCLVKDYFPEPVTVSWNSGALTSGVHTFPAVLQSSGLYSLSSVVTVPSSSLGTQTYICNVNHKPSNTKVDKKVEPKSCDKTHTCPPCPAPELLGGPSVFLFPPKPKDTLMISRTPEVTCVVVDVSHEDPEVKFNWYVDGVEVHNAKTKPREEQYNSTYRVVSVLTVLHQDWLNGKEYKCKVSNKALPAPIEKTISKAKGQPREPQVYVYPPSRDELTKNQVSLTCLVKGFYPSDIAVEWESNGQPENNYKTTPPVLDSDGSFALVSKLTVDKSRWQQGNVFSCSVMHEALHNHYTQKSLSLSPG
heavy 2: not shown
light: GDIQMTQSPSSLSASVGDRVTITCRSSETLVHSSGNTYLEWYQQKPGKAPKLLIYRVSNRFSGVPSRFSGSGSGTDFTLTISSLQPEDFATYYCFQGSFNPLTFGQGTKVEIKRTVAAPSVFIFPPSDEQLKSGTASVVCLLNNFYPREAKVQWKVDNALQSGNSQESVTEQDSKDSTYSLSSTLTLSKADYEKHKVYACEVTHQGLSSPVTKSFNRGEC
modifications: as above; maleimide functionalized auristatin drug linker (DL2); sites and DAR not stated
notes: also called lifastuzumab-DL2 ADC
On to B1, for which the Bmax in test [1] is 39800. Moreover, in test [2], the Kd amounted to 3 nM.

B2: palivizumab (anti-RSV antibody, v21995) (antibody, human IgG1, kappa, V domains shown)
VH: QVTLRESGPALVKPTQTLTLTCTFSGFSLSTSGMSVGWIRQPPGKALEWLADIWWDDKKDYNPSLKSRLTISKDTSKNQVVLKVTNMDPADTATYYCARSMITNWYFDVWGAGTTVTVSS
VL: DIQMTQSPSTLSASVGDRVTITCKSQLSVGYMHWYQQKPGKAPKLLIYDTSKLASGVPSRFSGSGSGTEFTLTISSLQPDDFATYYCFQGSGYPFTFGGGTKLEIKR
In the case of B2, in test [3], the “Internalized Fluorescence Fold-Over Untreated, H441, 4 h, 2.5 nM” value came out at 1 fold; the “Internalized Fluorescence Fold-Over Untreated, H441, 24 h, 2.5 nM” value came to 1.1 fold; the “Internalized Fluorescence Fold-Over Untreated, HCC-78, 4 h, 2.5 nM” value stood at 1 fold; the “Internalized Fluorescence Fold-Over Untreated, HCC-78, 24 h, 2.5 nM” value is 1.1 fold. Further, in test [3], the “Internalized Fluorescence Fold-Over Untreated, IGROV-1, 4 h, 2.5 nM” value turned out to be 0.9 fold and the “Internalized Fluorescence Fold-Over Untreated, IGROV-1, 24 h, 2.5 nM” value came to 1 fold.

B3: v29455 (H2L2) (antibody, human IgG1, kappa, V domains shown)
VH: QVQLVQSGAEVKKPGASVKVSCKASGFTFTSYNVHWVRQAPGQGLEWIAAISPGNGDLSYAQKFQGRVTMTVDTSTSTVYMELSSLRSEDTAVYYCARGRTGMGAVDYWGQGTLVTVSS
VL: DVQMTQSPSSLSASVGDRVTITCRASQDVYSYLNWYQQKPGKAVKLLIYYTSRLQSGVPSRFSGSGSGTDYTLTISSLQPEDFATYYCQQYNIFPWTFGQGTKLEIKR
notes: Humanized IgG1/kappa
In the case of B3, in test [1], the Bmax was 41900. For the same molecule, in test [2], the Kd was 1.18 nM.

B4: v29454 (H3L2) (antibody, human IgG1, kappa, V domains shown)
VH: QVQLVQSGAEVKKPGASVKMSCKASGFTFTSYNVHWVRQAPGQGLEWIAAISPGNGDLSYAQKFQGRATLTVDTSTSTAYMELSSLRSEDTAVYYCARGRTGMGAVDYWGQGTLVTVSS
VL: DVQMTQSPSSLSASVGDRVTITCRASQDVYSYLNWYQQKPGKAVKLLIYYTSRLQSGVPSRFSGSGSGTDYTLTISSLQPEDFATYYCQQYNIFPWTFGQGTKLEIKR
notes: Humanized IgG1/kappa
In test [1], B4 returned a Bmax of 42300. Also, the Kd in test [2] stood at 0.92 nM.

B5: v29449 (H4L3) (antibody, human IgG1, kappa, V domains shown)
VH: QVQLVQSGAEVKKPGASVKMSCKASGFTFTSYNVHWVRQAPGQGLEWIAAISPGNGDLSYAQKFQGRATLTVDRSTSTAYMELSSLRSEDTAVYYCARGRTGMGAVDYWGQGTLVTVSS
VL: DVQMTQSPSSLSASVGDRVTITCRASQDVYSYLNWYQQKPGKAVKLLIYYTSRLQSGVPSRFSGSGSGTDYTLTISSLQPEDIATYYCQQYNIFPWTFGQGTKLEIKR
notes: Humanized IgG1/kappa
B5 returned a Bmax in test [1] of 44500. Further, the Kd in test [2] is 0.79 nM.

B6: v29458 (H3L1) (antibody, human IgG1, kappa, V domains shown)
VH: QVQLVQSGAEVKKPGASVKMSCKASGFTFTSYNVHWVRQAPGQGLEWIAAISPGNGDLSYAQKFQGRATLTVDTSTSTAYMELSSLRSEDTAVYYCARGRTGMGAVDYWGQGTLVTVSS
VL: DIQMTQSPSSLSASVGDRVTITCRASQDVYSYLNWYQQKPGKAPKLLIYYTSRLQSGVPSRFSGSGSGTDFTLTISSLQPEDFATYYCQQYNIFPWTFGQGTKLEIKR
notes: Humanized IgG1/kappa
As for B6, the Bmax in test [1] stood at 40800. Also, the Kd in test [2] was 1.39 nM.

B7: v29450 (H3L3) (antibody, human IgG1, kappa, V domains shown)
VH: QVQLVQSGAEVKKPGASVKMSCKASGFTFTSYNVHWVRQAPGQGLEWIAAISPGNGDLSYAQKFQGRATLTVDTSTSTAYMELSSLRSEDTAVYYCARGRTGMGAVDYWGQGTLVTVSS
VL: DVQMTQSPSSLSASVGDRVTITCRASQDVYSYLNWYQQKPGKAVKLLIYYTSRLQSGVPSRFSGSGSGTDYTLTISSLQPEDIATYYCQQYNIFPWTFGQGTKLEIKR
notes: Humanized IgG1/kappa
Take B7: the Bmax in test [1] turned out to be 43800. The Kd in test [2] turned out to be 0.96 nM.
